Laboratory results published in the nanobody polyreactivity screen of Harvey et al. (2022).

Experiment: yeast display, Sf9 membrane polyspecificity reagent, FACS + sequencing; frameworks hold sequencing errors
Method in brief: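 Using colony PCR, genes from sorted yeast display clones were amplified, then sequenced on MiSeq at 2 × 250 and filtered by CDR length. The clones had been stained with 10% biotinylated, detergent-solubilized Sf9 membrane reagent for 1 hour at 4 °C and sorted by FACS into low and high (top ~1%) gates on anti-HA and streptavidin fluorescence. Polyreactivity labels come from the gate of origin.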

QVQIEESGGGLVQAGGSLRLSCAASGRIFSLNVMGWSRQAPRKERELVATIRGRGTSTYYADSVKGRFTISRDNAKNTVYLQMNSLKPEDTAVYYCAASGHGAYGYWGQGTQVTVSS
polyreactivity (PSR sort gate): low polyreactivity

QVQLVESGGGLVQAGGSLRLSCAASGLIFLYYAMGWYRQAPGKERELVAAISSSGSTYYADSGKGRFTISRDNAKNTVYLQMNSLKPEDTAVYYCAAAGYLYPYRYYYWGQGTQVTVSS
polyreactivity (PSR sort gate): high polyreactivity

QVQLVESGGGLGQAGGSLRLRCAASGSTFQYYAMGWYRQAPGKERELVAAITHSGTRTYYADSVKGRFTISRDNAKNTVYLQMNSLKPVDTAVYYCAARGYGKYDYWGQGTQVTVSS
polyreactivity (PSR sort gate): high polyreactivity

QVQLVESGGGLVQAGGSLRLSCAASGYIFIGYAMGWYRQAPGKERELVATITSGGSTNYADSVKGRFTISRDNAKNTVYLQLHSLNPEDTAVDYCAAGRGRYFYSWRYLYAIFDYWGQGTQVTVSS
polyreactivity (PSR sort gate): low polyreactivity

QVQLVESGGGLVQAGGSLRLSCAASGSTFVGYAMGWYRQAPGKERELVADIDSIGGSTYYADSVKRRFTISRDNAKNTVYLQMNSLKPEDTAVYDCAAYQHPGLRTSYEYWGQGTQVTVSS
polyreactivity (PSR sort gate): low polyreactivity

QVQLVESGGGLVQAGGSLRLSCAASGSTFGYNAMGWYRQAPGKERELVAAISRSGGRTYYADSVKGRFTISRDNAKNTVYLQMNSLKPEDTAVYYCATYYTNKVPARYYWGQGTQVTVSS
polyreactivity (PSR sort gate): high polyreactivity

QVQLVASGGGLVQAGGSLRLSCAASGSTFYYNAMGWSRQAPGKERELVAVISTSDGSTNYADSVKRRFTISSDNAKNTVYLQMISLKPEDTAVYYCAADYSESRRFDYWGQGTQVTVSS
polyreactivity (PSR sort gate): low polyreactivity

QVQLVESGGGLVQAGGSLRLSCAATGRIFSIYAMGWYRQAPGKERELVAAISGGGSTYYADSVKGRFTISRDNAKNTVYLQMNSLKPEDTAVYYCAALQSYYRYFGYDYWGQGTQVTVSS
polyreactivity (PSR sort gate): low polyreactivity

QVQLVESGGGLVQAGGSLRLSCAATGFTFEYYAMGWYRKAPGKERELVAAITSGGSTNYADSVKVRFTISRDNAKNTVSLQKNSLKPEDTAVYYCATSGNNYYYALYGYWGQGTQVTVSS
polyreactivity (PSR sort gate): low polyreactivity

QVQLVESRGGLVQAGGSLRLSCAASGYTFQRYAMGCYRQAPGKEREMVAAISWSSGTTYYADSVKGRFTISRDNAKNTVYLQMNSLKPEDTAVYYCAAAGRQSGGRFYYWGQGTQVTVSS
polyreactivity (PSR sort gate): high polyreactivity

QVQLVESGGGLVQAGGSLRLSCAASGRIFNYYAMGWYRQAPGKEREFVAAITSGGGSTYYADSVKGRFTISRDNAKNNVYLQMNSLKPEDTAVYYCNARLQSQVDAIGYGYWGQGTQVTVSS
polyreactivity (PSR sort gate): high polyreactivity

QVQLVESGGGLVQAGGSLRLSCDASGSIFYSKAMGWYRQAHGKERELVAAITVGGGRTYYADSVKGRFTISRDNAKNTVYLQMNSLNPEDTAVYYCAADSHASTYDYWGQGTQVTVSS
polyreactivity (PSR sort gate): low polyreactivity

QVQLVESGAGLVQAGGSLRLSCAASGSIFLYNDMGWYRQAPGKERELVAAITSDGSTNYADSVKGRFTISRDNAMNTVYLQMNSLKPEDNAVYYCAADALWFYLNWYYGGTAYGYWGQCTQVTVSS
polyreactivity (PSR sort gate): low polyreactivity

QVQHVESGGGLVQAGGSLRLSCAASGRIFPFNAMGCYRQAPGKETEFVAAIRLSGTRTYYADSVKGRFTISRDNAKNTVYLQMNCLNPEDTAVYYCAAKFSGHYYNYDYWGQGTQVTVSS
polyreactivity (PSR sort gate): high polyreactivity

QVQLVESGGGLVQAGGSLRLSCAASGITFRRYAMGWYRQAPGKERELVAVISVSGGRTHYADSVKGRFTISRDNAKNTVYLQMNSLKPEDTAVYYCAAQFSYRYYTDEVGYWGQGTQVTVSS
polyreactivity (PSR sort gate): high polyreactivity

QVQLVESGGGLVQAGGILRLSCAASGFIFNRYAMGWSRQSPGKARELVADITGGSTYYADSVKGRFTISRDNAKNTVYLQMNSLKPEDTAVYYCAAYVWRYWHEYDYWGQGTQVTVSS
polyreactivity (PSR sort gate): low polyreactivity

QVQLVESGGGLVQAGGSLRLSCAASGSTFGPYAMGWYRQAPGKERELVAAIDKSGGSTYYADSVKGRFTISRDNAKNTVYLQMNSLKPEDTAVYYCAVEKRYPRRRYDYWGQGTQVTVSS
polyreactivity (PSR sort gate): low polyreactivity

QVQLVESGGGLVQAGGSLRLSCAASGSIFRYYAMGWYRQAPGKEREFDASITYRGGRTYYADSVKGRFTISRDNAKNTVYLQMNSLKPEDTAVYYCAARTRAGAWTSKYHDYWGQGTQVTVSS
polyreactivity (PSR sort gate): high polyreactivity

QVQLVESGGGLVQAGGSLRLSCAASGSIFGRYAMGWYRQAPGKERELVAAISSSGGRTYYADSVNGRFTISRDNAKNTVYLQMNSLKPEDTAVYYCNAGTPYRGDYWGQGTQVTVSS
polyreactivity (PSR sort gate): high polyreactivity

QVQLVESGGGLVQAGGSLRLSCAASGSIFPGYAMGWYRQAPGKERELVATITWSGGSTYYADSVKGRFTISRDNAKNTVYLQMNSLKPADTAVYYCNADSNWYYQWNYYGLYDYWGQGTQVTVSS
polyreactivity (PSR sort gate): low polyreactivity

QVQLVESGGGVVQAGGSLRLSCAASGRIFRYYTMGWYRQAPGKERELVASITGSGTSTYYADSVKGRFTISRDNAKNTVYLQMNSLKPEDNAVYYCNARGFRVASHAAWYQYDYWGQGTQVTVSS
polyreactivity (PSR sort gate): high polyreactivity

QVQLVESGGGLVQAGGSLRLSCAASGSTFGYYAMGWYRQAPGKESELVAAISAGGGSTYYADSVKGRFTISRDNAKNTVYLQLNSLKPEDTAVYFCAARRPHMPVKTYDYWGQGTLVTVSS
polyreactivity (PSR sort gate): high polyreactivity

QDQLVESGGGLVQAGGSLRLSCAASGSTFNNNALGWYRQAPGKERELVAAISYTGGSTYYADSVKGRFTISRDNAKNSVYLHMNSLKPEDTAVYYCARRQARKFYYWGQGTQVTVSS
polyreactivity (PSR sort gate): high polyreactivity

QVQLVESGGGLVQAGGSLRLSCADSGLIFTQYAMGWYIQAPGKEREFVAAITWNGGRTYYADSVKGRFTISRDNAKNTVYLQMNSLKPEDTAVYYCATRNTRFHLDYWGQGTQVTVSS
polyreactivity (PSR sort gate): high polyreactivity

QVQLVESGGGLVQAGGSLRLSCAASGRIFWINDMGWSRQAPGKERELVAAIRSIGGSTYYADSVKGRFTISRDNGKNTVYLQMNSLKPEDTAVYYCAAKSSPKVRGRYYYWGQGTQVTVSS
polyreactivity (PSR sort gate): low polyreactivity

QVQLEESGRGLVQAGVSLRLSSAASGNTFVTNTMVWYRQAPGKERELVAAIDSGGDSYYADSVKGRFTISRDNAKNTVYFQMNSLKPEDTAVYYCAAVGDRNYFSNRRYEYWGQGTQVTVSS
polyreactivity (PSR sort gate): low polyreactivity

QVQLVESGGGLVQAGGSLRLSCAASGLTFPYNAMGWYRQAPGKERELVAAISNGGGTYYADSVKGRFTISRDNAKNPVYLQMNSLKPEDTAVYYCAVDEYSRDYWRYYYWGQGTQVTVSS
polyreactivity (PSR sort gate): low polyreactivity

QVQLVESGGGLVQAGGSLRLSCAASGRIFWDNDMGWYRQAPGKERELVAAISRRGGSTSYADSVKGRFTISRDNAKNTVYLQMYSLKPEDTAVYYCIVRTRWTRVRRYDYWGQGTQVTVSS
polyreactivity (PSR sort gate): high polyreactivity

QVQLVESGGGLVQAGGSLRLSCAASGSTFGSNAMGGYRKAPGKERELVAAISTSGGSTYYADSVKGRFTISRDNAKNTVYLQMNSLKPEDTAVYYCNVDPAYSITYKGDYWGQGTQVSVSS
polyreactivity (PSR sort gate): low polyreactivity

QVQLVESRGGLVQAGGSLRLSCAASGFIFDKYAMGWYRQAPGKERELVATITSGGSTYYADSVKGRFTISRDNAKNTVYLQMNSLKPEDTAVYYCAALDYGYRWYRYYYWGQGTQVTVSS
polyreactivity (PSR sort gate): high polyreactivity

QVQLVESGGGLVQAGGSLRLSCAASGSIFMGNAMGWYRQAPGKERELVATITSSGSTSYADSVKGRFTISRDNAKNTVYVQMNSLKPEDTAVYYCNTDLFQYGRTSTIYYEYDYWGQGTQVTVSS
polyreactivity (PSR sort gate): high polyreactivity

QVQLVESGGGLVQAGGSLRLSCAASGSTFRRYVMGWYRQAPGKERELVAAIRWNVGSTYYADSVKGRFTISRDNAKNTVYLQMNSLKPEDTAVYYCAAYEYVRGGYGYWGQGTQVTVSS
polyreactivity (PSR sort gate): high polyreactivity
